# Results taken from PMC8096781, “FOXM1D potentiates PKM2‐mediated tumor glycolysis and angiogenesis” (Molecular Oncology, 2021).
# B1: recombinant Flag-FOXM1D (purified) (natural protein, UniProt Q08050-4 1-786, looked up)
# chain: MKTSPRRPLILKRRRLPLPVQNAPSETSEEEPKRSPAQQESNQAEASKEVAESNSCKFPAGIKIINHPTMPNTQVVAIPNNANIHSIITALTAKGKESGSSGPNKFILISCGGAPTQPPGLRPQTQTSYDAKRTEVTLETLGPKPAARDVNLPRPPGALCEQKRETCADGEAAGCTINNSLSNIQWLRKMSSDGLGSRSIKQEMEEKENCHLEQRQVKVEEPSRPSASWQNSVSERPPYSYMAMIQFAINSTERKRMTLKDIYTWIEDHFPYFKHIAKPGWKNSIRHNLSLHDMFVRETSANGKVSFWTIHPSANRYLTLDQVFKQQKRPNPELRRNMTIKTELPLGARRKMKPLLPRVSSYLVPIQFPVNQSLVLQPSVKVPLPLAASLMSSELARHSKRVRIAPKVFGEQVVFGYMSKFFSGDLRDFGTPITSLFNFIFLCLSVLLAEEGIAPLSSAGPGKEEKLLFGEGFSPLLPVQTIKEEEIQPGEEMPHLARPIKVESPPLEEWPSPAPSFKEESSHSWEDSSQSPTPRPKKSYSGLRSPTRCVSEMLVIQHRERRERSRSRRKQHLLPPCVDEPELLFSEGPSTSRWAAELPFPADSSDPASQLSYSQEVGGPFKTPIKETLPISSTPSKSVLPRTPESWRLTPPAKVGGLDFSPVQTSQGASDPLPDPLGLMDLSTTPLQSAPPLESPQRLLSSEPLDLISVPFGNSSPSDIDVPKPGSPEPQVSGLAANRSLTEGLVLDTMNDSLSKILLDISFPGLDEDPLGPDNINWSQFIPELQ
# Biological target: PKM2 (purchased from Abcam) (UniProt P14618 1-531)
# Assay: cell-based or functional assay
# PKM2 (purchased from Abcam), sequence (P14618 whole entry): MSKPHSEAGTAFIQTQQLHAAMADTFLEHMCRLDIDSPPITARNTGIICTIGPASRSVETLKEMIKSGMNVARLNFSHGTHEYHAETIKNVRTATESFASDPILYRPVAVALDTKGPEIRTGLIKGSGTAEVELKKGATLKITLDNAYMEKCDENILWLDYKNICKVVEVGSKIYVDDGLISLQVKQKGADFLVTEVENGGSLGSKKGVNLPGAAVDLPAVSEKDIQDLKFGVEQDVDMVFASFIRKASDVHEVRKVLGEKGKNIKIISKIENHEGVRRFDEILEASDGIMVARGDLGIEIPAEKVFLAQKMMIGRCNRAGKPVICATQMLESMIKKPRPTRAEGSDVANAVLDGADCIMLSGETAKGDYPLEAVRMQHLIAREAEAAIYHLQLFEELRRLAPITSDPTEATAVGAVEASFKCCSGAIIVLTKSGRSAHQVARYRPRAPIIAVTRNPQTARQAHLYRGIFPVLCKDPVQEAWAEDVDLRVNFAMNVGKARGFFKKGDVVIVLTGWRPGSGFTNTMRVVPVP
binder,measurement,value
B1,"PK activity of PKM2 with FBP; FOXM1D added at 10, 20 and 30 μg per 10 μg PKM2 (molar ratios about 0.665, 1.33 and 2); share of the activity abolished at 1.33-fold FOXM1D",~49%
